pEC50: −log10 of the molar value.
Target: capture reagent (antibody) of the exenatide ELISA kit (Peninsula Laboratories Inc., # S-1311)
Experiment: ELISA (Peninsula Lab exenatide kit)

Substance: exenatide (peptide)
- pEC50: 9.70

Source: patent publication US20200164083A1
